Entries after “also recorded” stand apart in the source; their conditions may differ. Where two headings read alike, the source gives them in different places.

Data on three molecules can be found in patent publication US20230272054A1, “COMBINATION THERAPIES FOR THE TREATMENT AND PREVENTION OF BIOFILMS” (priority 2020, published 2023).

In data set [1] the test system is HMGB1 full-length. The conditions noted are these: CITED Xin et al., 2000; Table 1 lists under mHMGB1, p605 says full-length HMGB1; cited from earlier work.
Data set [2] has as its target T1, IHFNTHI, native integration host factor (DNABII protein) of nontypeable Haemophilus influenzae (nontypeable Haemophilus influenzae …, UniProt P43723 1-96; P43724 1-94).
T1 sequence 1: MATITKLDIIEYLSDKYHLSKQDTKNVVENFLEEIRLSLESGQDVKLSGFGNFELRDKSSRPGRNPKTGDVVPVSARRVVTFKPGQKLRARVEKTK
T1 sequence 2: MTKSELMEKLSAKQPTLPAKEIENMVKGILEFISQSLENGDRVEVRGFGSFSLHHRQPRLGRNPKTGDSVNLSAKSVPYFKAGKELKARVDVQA

Data set [3] has as its target T2, HUNTHI, native histone-like protein HU (DNABII protein) of nontypeable Haemophilus influenzae (nontypeable Haemophilus influenzae …, UniProt P43722 1-90).
T2 sequence: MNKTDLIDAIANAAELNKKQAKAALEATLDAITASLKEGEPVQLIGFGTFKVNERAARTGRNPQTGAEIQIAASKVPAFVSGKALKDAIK

Data set [4] has as its target T2, HUNTHI, native histone-like protein HU …. Nature of the data set: SPR (Biacore); mHMGB1 immobilised, HUNTHI injected; the text value differs from Table 1 (103). (In SPR one partner is held on a chip, and binding of the other changes the refractive index at the surface.)
Data set [5] has as its system biofilms formed by UPEC, B. cenocepacia, NTHI, Enterobacter spp, S. aureus, K. pneumoniae, A. baumanii, P. aeruginosa, E. faecium. Kind of data set: Disruption of 24 h bacterial biofilms in vitro by HMGB1 isoforms (LIVE/DEAD stain, CLSM, COMSTAT average thickness). The conditions noted are these: 24 h biofilms of nine pathogens; 200 nM protein, 16 h (S. aureus 800 nM rHMGB1; E. faecium 800 nM, 1 h).

Data set [6] has as its system E. faecium biofilms. Kind of data set: Disruption of 24 h E. faecium biofilms in vitro (CLSM, COMSTAT average thickness). The settings on record: 24 h biofilms, 1 h incubation; non-bactericidal dose.
Data set [7] concerns B. cenocepacia. Kind of data set: Murine model of lung infection by B. cenocepacia, bacterial burden. The conditions noted are these: 0.2 nmol i.t. at 24 hpi; 72 hpi; α-EF-Tu labeling.
Description: Intratracheal challenge of the murine lung with B. cenocepacia and treatment with HMGB1 isoforms: B. cenocepacia strain K56-2, was cultured in LB broth (Difco, Md.) at 37° C. overnight at 200 rpm. Bacterial concentration was adjusted before each experiment based on OD at 600 nm. C57BL/6 mice were infected intratracheally (i.t.) with 10^7 colony forming units (CFU) of B. cenocepacia. […] Animals were euthanized 24 or 48 hpi, and bronchoalveolar lavage (BAL) was collected with 1 ml of PBS plus 1 mM EDTA. […] The slides were permeabilized with 0.5% Triton X-100 for 10 minutes, blocked with 10% normal goat serum (Abcam) for 30 minutes and stained with a monoclonal antibody against E. coli Elongation Factor-Tu (α-EF-Tu; cross reacts with B. cenocepacia) (LSBio) overnight to label B. cenocepacia. The samples were then stained with goat α-mouse IgG Alexa Fluor 488 (Abcam) for 1 h at RT, mounted with fluoroshield media with DAPI (Abcam), visualized via the Nikon Eclipse Ti at 40× magnification (Nikon Instrument Inc. Americas) and analyzed by ImageJ software (NIH). To enumerate bacterial burden, the animals were euthanized 18 or 72 hpi, bronchoalveolar lavage was collected with 1 ml of PBS plus 1 mM EDTA, an aliquot of BAL was serially diluted and plated on LB agar. […] Neither animals nor samples were excluded from evaluation in any study.
Data set [8] concerns neutrophils in BAL. Kind of data set: Inflammatory cell recruitment into lungs of B. cenocepacia-challenged mice (H&E, flow cytometry of BAL). The class given is in vivo, C57BL/6 mice. The conditions noted are these: B. cenocepacia-infected and simultaneously treated, 0.2 nmol, 18 hpi.
Experiment in data set [9]: as above
The conditions noted are these: B. cenocepacia-challenged mice, 0.2 nmol, 72 hpi. The class given is in vivo, C57BL/6 mice.

For data set [10], the system named is pro-inflammatory and anti-inflammatory cytokines. Kind of data set: Quantitation of cytokines in middle ear fluids (cytometric bead array). The class given is in vivo, chinchilla (Chinchilla lanigera). The settings on record: six days after NTHI challenge, one day after completion of treatment. The method, then: Quantitation of cytokines in middle ear fluids: To quantitate cytokines in middle ear fluids (MEF), a BD™ Cytometric Bead Array was performed with fluids collected at the time of animal sacrifice. With BD™ human-specific Flex Sets, each MEF was individually examined for relative quantity of IL-1β, IL-4, IL-6, IL-8, IL-10, IL12-p70, IL-13, IL-17A, TNF or IFNγ according to manufacturer's instructions. MEFs from each animal were assayed individually. Data were captured on a BD ACCURI™ C6 cytometer (BD Biosciences) and analyzed with FlowJo software (FlowJo, LLC). The concentration of cytokines in each MEF was determined using a standard curve and calculated using GraphPad Prism software.

Data set [11] deals with eDNA lattice within K. pneumoniae biofilms. Nature of the data set: Visualization of eDNA lattice structure within K. pneumoniae biofilms (immunofluorescence, CLSM). In kind it is cell-based, Klebsiella pneumoniae. The conditions noted are these: 24 h K. pneumoniae biofilms, 200 nM protein, 16 h. From the text: Per the model as disclosed herein, HMGB1 would compete with DNABII proteins, wherein instead of stabilization, HMGB1 would de-stabilize these HJ-like structures and consequently disrupt the biofilm.

Data set [12] deals with Human neutrophils. Nature of the data set: NET formation by neutrophils incubated with HMGB1 isoforms (CLSM). The class given is cell-based. The settings on record: 200 nM protein, 3.5 h. The method, then:
Neutrophils were fixed, then labeled as described above to visualize the NETs.
Visualization of NETs structure upon incubation of neutrophils with various isoforms of HMGB1: Human neutrophils were isolated from blood using the EASYSEP™ isolation kit (Stemcell Technologies Inc.). […] NETs were fixed in formalin, blocked with 10% normal goat serum (Life Technologies), and labeled with α-dsDNA monoclonal antibody (1 μg), and α-neutrophil elastase polyclonal antibody (1 μg) or naive rabbit and mouse isotype controls (1 μg) in 200 μl PBS for 16 h hours at 4° C. NETs were washed with PBS and incubated for 1 h with 1:200 dilution goat α-rabbit IgG conjugated to ALEXAFLUOR® 594, goat α-mouse IgG conjugated to ALEXAFLUOR® 488, and 1:500 dilution wheat germ agglutinin conjugated to ALEXAFLUOR® 350 (PMN membrane stain). NETs were imaged with a Zeiss LSM 800 confocal microscope (Carl Zeiss Inc.) and rendered with Zeiss Zen software.

In data set [13] the test system is NTHI biofilms. Kind of data set: Disruption of NTHI biofilms in the middle ears of chinchillas with experimental otitis media. The class given is in vivo, chinchilla (Chinchilla lanigera). The conditions noted are these: 200 nM mHMGB1 and/or 342 nM Fabs. The procedure: As a negative control, an equivalent volume of sterile saline was delivered. One day after receipt of the second therapeutic dose, all animals were sacrificed and NTHI within the middle ear biofilms was enumerated. The relative amount of mucosal biofilm and mucosal inflammation were also qualitatively assessed.
First, effectiveness of single treatment was evaluated. To this end, a subset of animals in each cohort was sacrificed one day after receipt of a single therapeutic dose (FIG. 16H) whereas the remaining animals in each cohort were sacrificed 24 h after receipt of a second treatment.
Chinchilla model of experimental otitis media (OM): Adult chinchillas (Chinchilla lanigera) were obtained from Rauscher's Chinchilla Ranch, LLC. These outbred, non-specific pathogen-free animals were randomly divided into cohorts based on body weight and both male and female animals were enrolled. […] A concentration of 342 nM was based on prior studies wherein 5 μg intact IgG per 0.1 ml volume was injected into the middle ears of chinchillas (Goodman et al., 2011; Novotny et al., 2016; and Novotny et al., 2019).
Disruption of NTHI biofilms resident within the middle ears of chinchillas with experimental OM: Both middle ears of each animal were challenged with 1000 CFU NTHI strain 86-028NP by direct injection to induce experimental OM. Four days later, NTHI mucosal biofilms fill >50% of the middle ear (Novotny et al., 2011). […] To determine the outcome of treatment, animals were sacrificed one day after completion of antibody therapy, images of mucosal biofilms captured with a Zeiss SV6 dissecting microscope, then mucosal biofilms and middle ear mucosa collected, homogenized and plated on to chocolate agar to semi-quantitate the non-planktonic bacterial load within the middle ear (Goodman et al., 2011). […] As an additional assessment, the amount of biofilm in each middle ear was qualitatively determined. […] For both quantitation of bacterial load and qualitative assessment of mucosal biofilm, each middle ear was considered independent.

Data set [14] has as its system UPEC biofilms. Nature of the data set: Disruption of 24 h UPEC biofilms in vitro (CLSM, COMSTAT average thickness). The settings on record: mHMGB1 200 nM, 16 h.
Data set [15] deals with HJ DNA. Nature of the data set: Electrophoretic mobility shift assay (EMSA), binding to HJ DNA. The settings on record: 20 nM 6-carboxyfluorescein HJ DNA, 50-500 nM protein, non-denaturing PAGE. The procedure: Arrows indicate the HJ DNA-protein complex.
FIG. 11A provides that NEM-modified rHMGB1 was confirmed by triton acetic acid urea gel (TAU gel). […] Arrows indicate the HJ DNA-protein complex.
Electrophoretic mobility shift assay (EMSA): EMSA was performed as previously described (Devaraj et al., 2019).

On to HJ DNA (cited), for which the Kd in data set [1] was 10 nM.

B1: mHMGB1 (C45S), recombinant human HMGB1 with an engineered single amino acid mutation C45S (other)
chain: MGKGDPKKPRGKMSSYAFFVQTCREEHKKKHPDASVNFSEFSKKSSERWKTMSAKEKGKFEDMAKADKARYEREMKTYIPPKGETKKKFKDPNAPKRPPSAFFLFCSEYRPKIKGEHPGLSIGDVAKKLGEMWNNTAADDKQPYEKKAAKLKEKYEKDIAAYRAKGKPDAAKKGVVKAEKSKKKKEEEEGEEDEEDEEEEEDEEDEDEEEDDDDE
notes: also called modified HMGB1
In the case of B1, the Kd in data set [2] came out at 579 nM; in data set [3] it was 103 nM; in data set [4], 104 nM.

B2: mHMGB1: recombinant human HMGB1 with engineered single amino acid mutation C45S, SEQ ID NO: 52 (protein)
chain: MGKGDPKKPRGKMSSYAFFVQTCREEHKKKHPDASVNFSEFSKKSSERWKTMSAKEKGKFEDMAKADKARYEREMKTYIPPKGETKKKFKDPNAPKRPPSAFFLFCSEYRPKIKGEHPGLSIGDVAKKLGEMWNNTAADDKQPYEKKAAKLKEKYEKDIAAYRAKGKPDAAKKGVVKAEKSKKKKEEEEGEEDEEDEEEEEDEEDEDEEEDDDDE
modifications: mHMGB1 (C45S)
For B2, the “biofilm average thickness compared to control” value in data set [5] is recorded as “significantly disrupted bacterial biofilms; also recorded: fully retained the anti-biofilm activity”. The “dose required to achieve a similar reduction in biofilm average thickness, E. faecium” value in data set [6] is on record as “required a higher dose”. In data set [7], the “B. cenocepacia stained within the lung tissue” value was “significantly reduced bacterial load”. Also, the “neutrophils in BAL (flow cytometry)” value in data set [8] is on record as “eliminated the pro-inflammatory activity; also recorded: significant reduction of neutrophils in BAL compared to those treated with rHMGB1”. For the same molecule, in [9], the “infiltration of inflammatory cells into lungs (H&E)” value was “no signs of inflammation”. For the same molecule, the “IL-10 in middle ear fluids” value in data set [10] was “significantly elevated concentration; also recorded: statistically significant increase”. In [11], the “biofilm bacteria (FilmTracer FM 4-64)” value was “substantial reduction in biofilm bacteria” and the “web-like eDNA lattice structure within biofilm” value was “disruption of the web-like structure; also recorded: notably disrupted”. The “induction of NET formation by neutrophils” value in [12] is on record as “intertwined NETs specifically formed; also recorded: more strongly induced NET formation”. In data set [13] (24 h after one dose, 6 middle ears), the “middle ears that cleared NTHI / culture-negative” value was 50%. Also, the “NTHI in middle ears after two doses” value in data set [13] (24 h after second dose) is given as “further reduced”. In addition, the “relative amount of remaining NTHI mucosal biofilm” value in data set [13] (one or two doses) is “highly effective”. Also, in data set [14], the “UPEC biofilm disruption in the presence of CbpA (negative control)” value was “could still disrupt UPEC biofilms”. Further, the “UPEC biofilm disruption in the presence of exogenously added RuvA” value in [14] (competitor dose-dependent) is “lost in the presence of competitors; also recorded: unable to disrupt biofilms formed by UPEC”. Further, the “binding to HJ DNA (EMSA)” value in data set [15] was “maintained its ability to bind HJ DNA; also recorded: retained its ability to bind to HJ DNA”.

One may read the Kd as the concentration at which binding is half-saturated.
